Test results: patent publication US20140086829A1 (BIOREC S A, published 2014)

Biological target: T1, mouse VEGF (Peprotech) (mouse, UniProt Q00731-2 27-190, limits assumed)
T1 construct: also called Mouse VEGF-A
T1 sequence (looked up): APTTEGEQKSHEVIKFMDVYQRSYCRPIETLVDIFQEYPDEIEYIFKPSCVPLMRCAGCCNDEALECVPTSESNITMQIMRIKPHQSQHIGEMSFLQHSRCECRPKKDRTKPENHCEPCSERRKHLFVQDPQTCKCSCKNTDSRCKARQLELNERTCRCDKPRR
Assay: ELISA; antigen coated 1 µg/ml; scFv 10 µg/mL; 9E10-peroxidase

B1: soluble scFv 2H1 antibody fragment (scFv, from another filing)
scFv: QQVQLVQSGAEVKKPGESLKISCKGSGYSFTSYWIGWVRQMPGKGLEWMGIIYPGDSDTRYSPSFQGQVTISADKSISTAYLQWSSLKASDTAMYYCARLVVRDTEIWGQGTMVTVSSAPQAKSSGSGSESKVDQAVVTQEPSLTVSPGGTVTLTCASSIGAVTSGNYPNWFQQRPGQPPRALIYSTSNKHSWTPARFSGSLLGGKAALTLSGAQPEDEAEYYCLLSYSGARPVFGGGTKLTVLGAAAGSEQKLISEEDLNSHHHHHH
  absorbance at 492 nm: 0.09
